Measured values taken from article PMC5676682, “Precision Targeting of Tumor Macrophages with a CD206 Binding Peptide” (Scientific Reports, 2017).
Where no end group is shown, it is not given here. FAM = 5(6)-carboxyfluorescein; Ahx = NCCCCCC(=O)O

Biological target: T1, recombinant mouse macrophage mannose receptor rmMMR/CD206 (mouse, UniProt Q61830 20-1388)
T1 construct: macrophage mannose receptor (CD206/MRC1), mouse, recombinant; take the limits from the vendor's data sheet; also called MRC1; mouse recombinant CD206; source: bought: R&D Systems (catalog number 2535-MM-050)
T1 sequence (looked up): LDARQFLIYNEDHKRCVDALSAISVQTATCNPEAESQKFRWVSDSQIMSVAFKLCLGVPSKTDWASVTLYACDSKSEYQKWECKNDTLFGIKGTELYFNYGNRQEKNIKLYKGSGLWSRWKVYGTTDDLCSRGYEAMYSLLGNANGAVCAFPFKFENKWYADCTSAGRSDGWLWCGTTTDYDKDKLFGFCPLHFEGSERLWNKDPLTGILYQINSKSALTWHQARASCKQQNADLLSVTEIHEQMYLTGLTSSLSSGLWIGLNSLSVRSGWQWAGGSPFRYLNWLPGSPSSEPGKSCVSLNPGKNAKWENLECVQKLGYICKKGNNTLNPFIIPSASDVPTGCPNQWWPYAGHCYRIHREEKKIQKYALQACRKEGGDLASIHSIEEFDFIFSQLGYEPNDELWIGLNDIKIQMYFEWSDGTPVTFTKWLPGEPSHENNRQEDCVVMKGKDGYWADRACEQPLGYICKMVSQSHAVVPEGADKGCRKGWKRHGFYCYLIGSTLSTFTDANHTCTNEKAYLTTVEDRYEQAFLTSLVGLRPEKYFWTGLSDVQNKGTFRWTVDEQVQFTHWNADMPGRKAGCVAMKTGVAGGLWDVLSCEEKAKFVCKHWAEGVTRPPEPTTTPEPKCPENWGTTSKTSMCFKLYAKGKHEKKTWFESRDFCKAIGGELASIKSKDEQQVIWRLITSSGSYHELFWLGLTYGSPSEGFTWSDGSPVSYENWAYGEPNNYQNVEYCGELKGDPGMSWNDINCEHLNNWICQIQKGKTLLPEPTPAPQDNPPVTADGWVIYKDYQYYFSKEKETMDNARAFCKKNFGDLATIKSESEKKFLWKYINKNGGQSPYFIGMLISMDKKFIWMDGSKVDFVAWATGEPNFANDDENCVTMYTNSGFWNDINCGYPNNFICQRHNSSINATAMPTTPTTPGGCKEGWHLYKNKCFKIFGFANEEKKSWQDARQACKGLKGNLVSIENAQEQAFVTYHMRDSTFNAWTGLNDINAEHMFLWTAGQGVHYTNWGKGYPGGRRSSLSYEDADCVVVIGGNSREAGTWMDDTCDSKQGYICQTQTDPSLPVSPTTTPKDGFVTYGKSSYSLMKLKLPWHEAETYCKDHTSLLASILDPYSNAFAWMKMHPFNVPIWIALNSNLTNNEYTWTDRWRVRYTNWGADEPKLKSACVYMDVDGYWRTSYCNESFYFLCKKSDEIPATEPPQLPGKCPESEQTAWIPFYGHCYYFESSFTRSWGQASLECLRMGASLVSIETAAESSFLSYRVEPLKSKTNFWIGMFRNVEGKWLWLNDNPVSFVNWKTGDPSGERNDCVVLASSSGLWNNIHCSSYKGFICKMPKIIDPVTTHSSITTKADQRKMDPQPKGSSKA
Experiment: fluorescence polarisation; fluorescence anisotropy in solution, kinetic mode, 50 nM FAM peptide and 1 µM protein (pseudo first-order), 25 °C, 10 mM Na-HEPES, 150 mM NaCl, 1 mM CaCl2, 0.1% Pluronic F-127, pH 7.4
Details: both partners purified

- binding result: binds
B1: FAM-CSPGAK (peptide)
peptide: {FAM-Ahx}-CSPGAK
notes: also called linear CSPGAK motif; source: synthetic peptide; bought: TAG Copenhagen
